Reference: US12385902B2, “Methods for generating and screening compartmentalised peptide libraries” (UNIVERSITY OF SOUTHAMPTON, priority 2017, dated 2025)
“Also recorded” adds a separate entry of the source.

Assays:
[1] = molecular target: T1, AB42-GFP fusion (Homo sapiens, UniProt P05067); experiment: In vitro expression in microfluidic droplets of AB42-GFP fusion with cyclic peptide; aggregation assay read by FACS green fluorescence; type: biochemical; details: double emulsion droplets, IVTT 2 h at 37° C., relative to buffer alone, IVTT alone and cyclo-CA5
T1 construct: In vitro expression in microfluidic droplets of AB42-GFP fusion with cyclo-TAFDR; made in house; host or cells: cell-free in vitro transcription/translation (IVTT)
T1 sequence (P05067 672-713 limits assumed): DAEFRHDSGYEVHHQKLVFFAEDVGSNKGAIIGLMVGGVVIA
Description: FIG. 17. In vitro expression in microfluidic droplets of AB42-GFP fusion with cyclo-TAFDR (SEQ ID NO: 7) (Matis et al.). Vector CSpDuetNpuHisAB42-GFP was utilised for the cloning of TAFDR (SEQ ID NO: 7) into MCS1. Thereafter, plasmid DNA was encapsulated into agarose droplets alongside isothermal DNA amplification reaction components and incubated overnight. Agarose beads were prepped as previously stated and re-encapsulated together with IVTT. A final emulsification step was performed to yield FACS compatible double emulsions. A negative control vector in the presence of CA5 was likewise constructed to verify cyclo-TAFDR (SEQ ID NO: 7) AB42-GFP aggregation inhibition.
When GFP is produced as an aggregating fusion, its fluorescence is lost; however, when the aggregation is disrupted by TAFDR (SEQ ID NO: 7), the GFP can fluoresce. See Mathis et al., Nature Biomedical Engineering volume 1, pages 838-852 (2017).
We have used the Δβ42 aggregation assay to assess the performance of the system of the invention. This assay has previously been combined with a SICLOPPS screen (Mathis et al.), so cyclo-TAFDR (SEQ ID NO: 7) is a validated positive cyclic peptide control.
Vector CSpDuetNpuHisAB42-GFP was utilised for the cloning of TAFDR (SEQ ID NO: 7) into MCS1. […]

[2] = test system: Alzheimer's protein Δβ42 fused to GFP; details: Mathis et al., Nature Biomedical Engineering 2017; cited from earlier work
Alzheimer's protein Δβ42 fused to GFP, sequence (P05067 672-713 limits assumed, stated change not applied): as the sequence (P05067 672-713 limits assumed) above

Substance: cyclo-TAFDR (cyclised)
- green fluorescence (GFP) upon cyclic peptide expression, associated with disruption of Aβ aggregation [1]: positive shift in green fluorescence; also recorded: significant increase in fluorescence
- inhibition of aggregation of Aβ42 fused to GFP [2]: inhibit aggregation
